Measured values as given in US20230071371A1 (Scripps Research, published 2023).
Read-outs that look alike come from different tables or passages of the source. Bridges are numbered along the chain shown (N, C = ends). Where no end group is shown, it is not given here. [ ]: non-standard residue; d: D form. hArg = N=C(N)NCCCC[C@H](N)C(=O)O; staple K20 = not defined here; staple K4 = not defined here; staple K5 = not defined here; staple K6 = not defined here; staple K7 = not defined here; staple K8 = not defined here; staple K9 = not defined here; Nle = CCCC[C@H](N)C(=O)O; L4 = not defined here; L5 = not defined here; L6 = not defined here; L7 = not defined here; Aib = CC(C)(N)C(=O)O

How the values were obtained:
Test in all cases: cell-based or functional assay
GPR10 [1] = molecular target: T1, GPR10 (UniProt P49683 1-370, limits assumed)
T1 sequence (looked up): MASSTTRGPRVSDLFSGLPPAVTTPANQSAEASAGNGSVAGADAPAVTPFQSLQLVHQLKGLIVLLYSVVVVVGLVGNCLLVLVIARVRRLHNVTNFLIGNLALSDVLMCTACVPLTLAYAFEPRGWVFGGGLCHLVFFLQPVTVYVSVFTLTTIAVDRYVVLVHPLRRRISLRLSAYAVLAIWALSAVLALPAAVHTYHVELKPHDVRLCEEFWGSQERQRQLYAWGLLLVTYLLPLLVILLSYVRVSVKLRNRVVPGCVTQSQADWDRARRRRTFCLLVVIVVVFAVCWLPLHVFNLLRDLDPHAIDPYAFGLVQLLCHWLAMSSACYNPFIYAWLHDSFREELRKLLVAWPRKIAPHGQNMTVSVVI

GPR10 [2] = molecular target: T1, GPR10; remark: listed apart in the source
human GLP-1R = human GLP-1R (human, UniProt P43220 24-463)
human GIPR = molecular target: T2, human GIPR (human, UniProt P48546 22-466)
T2 sequence (looked up): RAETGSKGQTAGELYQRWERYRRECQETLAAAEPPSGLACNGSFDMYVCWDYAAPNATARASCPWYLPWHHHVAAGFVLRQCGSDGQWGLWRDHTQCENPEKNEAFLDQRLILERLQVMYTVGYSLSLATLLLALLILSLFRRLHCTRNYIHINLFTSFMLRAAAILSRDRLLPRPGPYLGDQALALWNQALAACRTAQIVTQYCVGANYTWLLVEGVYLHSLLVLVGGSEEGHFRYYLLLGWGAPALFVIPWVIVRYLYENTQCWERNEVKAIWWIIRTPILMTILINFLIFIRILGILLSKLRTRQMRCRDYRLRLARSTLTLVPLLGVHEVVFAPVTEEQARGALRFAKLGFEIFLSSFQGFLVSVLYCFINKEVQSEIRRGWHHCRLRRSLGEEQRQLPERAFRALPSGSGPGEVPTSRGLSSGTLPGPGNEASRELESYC

human NPFF2R = human NPFF2R (human, UniProt Q9Y5X5 1-522)
human NPFF2R, sequence (Q9Y5X5 whole entry): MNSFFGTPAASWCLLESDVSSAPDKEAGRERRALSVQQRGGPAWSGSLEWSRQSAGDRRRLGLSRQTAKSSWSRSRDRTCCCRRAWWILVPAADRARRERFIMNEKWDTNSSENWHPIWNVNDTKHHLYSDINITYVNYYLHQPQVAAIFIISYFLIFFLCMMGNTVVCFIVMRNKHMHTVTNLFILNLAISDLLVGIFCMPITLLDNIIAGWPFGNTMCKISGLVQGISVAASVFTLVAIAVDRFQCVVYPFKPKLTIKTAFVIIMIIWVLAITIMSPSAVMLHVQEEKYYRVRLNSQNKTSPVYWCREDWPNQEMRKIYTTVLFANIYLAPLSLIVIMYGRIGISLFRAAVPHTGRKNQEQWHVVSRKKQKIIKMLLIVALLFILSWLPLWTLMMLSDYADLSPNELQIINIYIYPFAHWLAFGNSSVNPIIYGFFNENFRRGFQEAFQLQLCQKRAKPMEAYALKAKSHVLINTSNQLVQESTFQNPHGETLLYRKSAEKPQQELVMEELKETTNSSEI

GPR10 [3] = molecular target: T1, GPR10; remark: listed apart in the source

## SRAHQCSMETRTCDINPAWYTGRGIRPVGRF-NH2 (linker 6-13 via L5; reading uncertain) [Conjugate 238]
GPR10 [1]
  GPR10 EC50: 260 nM
GPR10 [2]
  GPR10 EC50: 260 nM

## Y[Aib]EGTFTSDYSIYLDKKAQ[Aib]AFVKWLIAQGPSSGAPPPS (linker 17-24 via staple K9; reading uncertain) [Conjugate 164]
Human GLP-1R
  EC50 cAMP 0% FBS: 0.14 nM
Human GIPR
  EC50 cAMP 0% FBS: 68.3 nM

## Y[Aib]EGTFTSDYSIYKDKQAA[Aib]KFKNWLKAGGPSSGAPPPS (linker 23-27 via staple K6; reading uncertain) [Conjugate 155]
Human GLP-1R
  EC50 cAMP 0% FBS: 4.08 nM
Human GIPR
  EC50 cAMP 0% FBS: 1.66 nM

## Y[Aib]EGTFTSDYSIYLDKKAA[Aib]EFVKWLLAGGPSSGAPPPS (linker 17-24 via staple K6; reading uncertain) [Conjugate 147]
Human GLP-1R
  EC50 cAMP 0% FBS: 0.07 nM
Human GIPR
  EC50 cAMP 0% FBS: 0.02 nM

## SRAHQCS[Nle]ETRTCDINPAWYTG[hArg]GIRPVGRF-NH2 (linker 6-13 via L6; reading uncertain) [Conjugate 270]
Human NPFF2R
  NPFF2R EC50 0% FBS: 270 nM
  NPFF2R EC50 10% FBS: 310 nM
GPR10 [3]
  GPR10 EC50 0% FBS: 12 nM
  GPR10 EC50 10% FBS: 42 nM

## Y[Aib]EGTFTSDYSIYKDKQAA[Aib]KFVNWLLAGGPSSGAPPPS (linker 14-21 via staple K9; reading uncertain) [Conjugate 144]
Human GLP-1R
  EC50 cAMP 0% FBS: 0.012 nM
Human GIPR
  EC50 cAMP 0% FBS: 0.0022 nM

## Y[Aib]EGTFTSDYSIYKDKQAA[Aib]KFKNWLKAGGPSSGAPPPS (linker 23-27 via staple K4; not fully specified; reading uncertain) [Conjugate 145]
Human GLP-1R
  EC50 cAMP 0% FBS: 61.4 nM

## Y[Aib]EGTFTSDYSIYLDKKAA[Aib]EFVKWLLAGGPSSGAPPPS (linker 17-24 via staple K20; reading uncertain) [Conjugate 149]
Human GLP-1R
  EC50 cAMP 0% FBS: 0.05 nM
Human GIPR
  EC50 cAMP 0% FBS: 0.01 nM

## Y[Aib]EGTFTSDYSIYKDKQAA[Aib]KFKNWLKAGGPSSGAPPPS (linker 23-27 via staple K8; reading uncertain) [Conjugate 156]
Human GLP-1R
  EC50 cAMP 0% FBS: 14.6 nM
Human GIPR
  EC50 cAMP 0% FBS: 2.82 nM

## Y[Aib]EGTFTSDYSIYLDKKAQ[Aib]AFVKWLIAQGPSSGAPPPS (linker 17-24 via staple K4; reading uncertain) [Conjugate 146]
Human GLP-1R
  EC50 cAMP 0% FBS: 0.11 nM
Human GIPR
  EC50 cAMP 0% FBS: 0.03 nM

## Y[Aib]EGTFTSDYSIYLDKKAQ[Aib]AFVKWLIAQGPSSGAPPPS (linker 17-24 via staple K5; reading uncertain) [Conjugate 163]
Human GLP-1R
  EC50 cAMP 0% FBS: 0.24 nM
Human GIPR
  EC50 cAMP 0% FBS: 0.05 nM

## SRAHQCSMETRTCDINPAWYTGRGIRPVGRF-NH2 (linker 6-13 via L4; reading uncertain) [Conjugate 237]
GPR10 [1]
  GPR10 EC50: 80 nM
GPR10 [2]
  GPR10 EC50: 80 nM

## Y[Aib]EGTFTSDYSIYLDKKAQ[Aib]AFVKWLIAQGPSSGAPPPS (linker 17-24 via staple K8; reading uncertain) [Conjugate 161]
Human GLP-1R
  EC50 cAMP 0% FBS: 0.4 nM
Human GIPR
  EC50 cAMP 0% FBS: 0.01 nM

## Y[Aib]EGTFTSDYSIYKDKQAA[Aib]KFKNWLKAGGPSSGAPPPS (linker 23-27 via staple K5; reading uncertain) [Conjugate 158]
Human GLP-1R
  EC50 cAMP 0% FBS: 98.3 nM
Human GIPR
  EC50 cAMP 0% FBS: 30.5 nM

## Y[Aib]EGTFTSDYSIYLDKKAQ[Aib]AFVKWLIAQGPSSGAPPPS (linker 17-24 via staple K6; reading uncertain) [Conjugate 160]
Human GLP-1R
  EC50 cAMP 0% FBS: 0.03 nM
Human GIPR
  EC50 cAMP 0% FBS: 7.3 nM

## Y[Aib]EGTFTSDYSIYKDKQAA[Aib]KFKNWLKAGGPSSGAPPPS (linker 23-27 via staple K20; reading uncertain) [Conjugate 157]
Human GLP-1R
  EC50 cAMP 0% FBS: 16.4 nM

## Y[Aib]EGTFTSDYSIYKDKQAA[Aib]KFKNWLKAGGPSSGAPPPS (linker 23-27 via staple K9; reading uncertain) [Conjugate 159]
Human GLP-1R
  EC50 cAMP 0% FBS: 1180 nM
Human GIPR
  EC50 cAMP 0% FBS: 0.0312 nM

## Y[Aib]EGTFTSDYSIYLDKKAQ[Aib]AFVKWLIAQGPSSGAPPPS (linker 17-24 via staple K20; reading uncertain) [Conjugate 162]
Human GLP-1R
  EC50 cAMP 0% FBS: 0.05 nM
Human GIPR
  EC50 cAMP 0% FBS: 0.02 nM

## Y[Aib]EGTFTSDYSIYLDKKAA[Aib]EFVKWLLAGGPSSGAPPPS (linker 17-24 via staple K7; reading uncertain) [Conjugate 150]
Human GLP-1R
  EC50 cAMP 0% FBS: 0.06 nM
Human GIPR
  EC50 cAMP 0% FBS: 0.02 nM

## Y[Aib]EGTFTSDYSIYKDKQAA[Aib]KFVNWLLAGGPSSGAPPPS (linker 14-21 via staple K20; reading uncertain) [Conjugate 153]
Human GLP-1R
  EC50 cAMP 0% FBS: 0.05 nM
Human GIPR
  EC50 cAMP 0% FBS: 0.01 nM

## YXEGTFTSDYSIYLDKKAAXEFVKWLLAGGPSSGAPPPS (staple K5 on Lys 17, 24; Aib 2, 20) [Conjugate 139]
Human GLP-1R
  EC50 cAMP 0% FBS: 0.061 nM
Human GIPR
  EC50 cAMP 0% FBS: 0.0026 nM

## YXEGTFTSDYSIYLDKKAAXEFVKWLLAGGPSSGAPPPS (staple K4 on Lys 17, 24; Aib 2, 20) [Conjugate 140]
Human GLP-1R
  EC50 cAMP 0% FBS: 0.034 nM
Human GIPR
  EC50 cAMP 0% FBS: 0.0028 nM

## Y[Aib]EGTFTSDYSIYKDKQAA[Aib]KFVNWLLAGGPSSGAPPPS (linker 14-21 via staple K8; not fully specified; reading uncertain) [Conjugate 152]
Human GIPR
  EC50 cAMP 0% FBS: 0.05 nM

## Y[Aib]EGTFTSDYSIYKDKQAA[Aib]KFVNWLLAGGPSSGAPPPS (linker 14-21 via staple K6; reading uncertain) [Conjugate 151]
Human GLP-1R
  EC50 cAMP 0% FBS: 0.03 nM
Human GIPR
  EC50 cAMP 0% FBS: 0.02 nM

## Y[Aib]EGTFTSDYSIYKDKQAA[Aib]KFVNWLLAGGPSSGAPPPS (linker 14-21 via staple K7; reading uncertain) [Conjugate 154]
Human GLP-1R
  EC50 cAMP 0% FBS: 0.03 nM
Human GIPR
  EC50 cAMP 0% FBS: 0.02 nM

## SRAHQCS[Nle]ETRTCDINPAWYTG[hArg]GIRPVGRF-NH2 (linker 6-13 via L7; reading uncertain) [Conjugate 271]
Human NPFF2R
  NPFF2R EC50 0% FBS: 130 nM
  NPFF2R EC50 10% FBS: 140 nM
GPR10 [3]
  GPR10 EC50 0% FBS: 9 nM
  GPR10 EC50 10% FBS: 39 nM

## Y[Aib]EGTFTSDYSIYLDKKAA[Aib]EFVKWLLAGGPSSGAPPPS (linker 17-24 via staple K9; reading uncertain) [Conjugate 143]
Human GLP-1R
  EC50 cAMP 0% FBS: 0.068 nM
Human GIPR
  EC50 cAMP 0% FBS: 0.002 nM

## Y[Aib]EGTFTSDYSIYLDKKAA[Aib]EFVKWLLAGGPSSGAPPPS (linker 17-24 via staple K8; reading uncertain) [Conjugate 148]
Human GLP-1R
  EC50 cAMP 0% FBS: 0.46 nM
Human GIPR
  EC50 cAMP 0% FBS: 0.03 nM
